In patent publication US20180243437A1 (published 2018):

B1: human VEGFR-2/Fc (R&D Systems) (Fc fusion)
chain: ASVGLPSVSLDLPRLSIQKDILTIKANTTLQITCRGQRDLDWLWPNNQSGSEQRVEVTECSDGLFCKTLTIPKVIGNDTGAYKCFYRETDLASVIYVYVQDYRSPFIASVSDQHGVVYITENKNKTVVIPCLGSISNLNVSLCARYPEKRFVPDGNRISWDSKKGFTIPSYMISYAGMVFCEAKINDESYQSIMYIVVVVGYRIYDVVLSPSHGIELSVGEKLVLNCTARTELNVGIDFNWEYPSSKHQHKKLVNRDLKTQSGSEMKKFLSTLTIDGVTRSDQGLYTCAASSGLMTKKNSTFVRVHEKPFVAFGSGMESLVEATVGERVRIPAKYLGYPPPEIKWYKNGIPLESNHTIKAGHVLTIMEVSERDTGNYTVILTNPISKEKQSHVVSLVVYVPPQIGEKSLISPVDSYQYGTTQTLTCTVYAIPPPHHIHWYWQLEEECANEPSQAVSVTNPYPCEEWRSVEDFQGGNKIEVNKNQFALIEGKNKTVSTLVIQAANVSALYKCEAVNKVGRGERVISFHVTRGPEITLQPDMQPTEQESVSLWCTADRSTFENLTWYKLGPQPLPIHVGELPTPVCKNLDTLWKLNATMFSNSTNDILIMELKNASLQDQGDYVCLAQDRKTKKRHCVVRQLTVLERVAPTITGNLENQTTSIGESIEVSCTASGNPPPQIMWFKDNETLVEDSGIVLKDGNRNLTIRRVRKEDEGLYTCQACSVLGCAKVEAFFIIEGAQEKTNLE
notes: Bought protein; also called recombinant VEGFR2/Fc; not shown: Fc part; It is captured by goat anti-human IgG-Fc in the ELISA
B2: biotin-V21H4 (SEQ ID NO:6) (VHH)
VHH: QVQLVESGGGLVQAGGSLRLSCAASGRAFSSYAMGWFRQAPGKERELVAAISWSDDSTYYANSVKGRFTISRDNAKSAVYLQMNSLKPEDTAVYYCAAHKSLQRPDEYTYWGQGTQVTVSS
modifications: biotinylated (site not stated)
notes: The biotinylation method is not described; also called V21H4 antibody
B3: AB2 with linker 2 (SEQ ID NO:13) (antibody, V domains shown)
VH: QVQLVESGGGLIKPGGSLRLSCAASGFRFSAESMTWVRQAPGKGLEWVSAISSSGGSTYYADSVKGRFTISRDNSKNTVYLQMNSLRAEDTAVYYCVRSPKGCTHASCSWNSGSWGQGTLVTVSS
notes: Single domain antibody on a human VH scaffold, from a human VH library, expressed in E. coli; also called VR2-801-18
B4: AB1 with linker 2 (SEQ ID NO:7) (VHH)
VHH: B2 VHH
notes: Llama single domain antibody expressed in E. coli BL21(DE3); The monomer fraction from Superdex 75 was used for SPR; also called VR2-21
B5: AB4 with linker 2 (SEQ ID NO:27) (VHH)
VHH: QVKLEESGGGLVQAGGSLRLSCAASGGTASSYAMGWFRQAPGKEREFVAAISRSGGNTDYVDSAKGRFTISRDDAKNTVSLQMNSLRLEDTAVYYCAARYAGTWPNDAGTVYWLPPNYNYWGQGTQVTVSS
notes: Llama single domain antibody expressed in E. coli; also called VR2-38
B6: AB3 with linker 2 (SEQ ID NO:21) (antibody, V domains shown)
VH: QVQLVESGGGLIKPGGSLRLSCAASGDMLSYDVMSWVRQAPGKGLEWVSAISSSGGSTYYADSVKGRFTISRDNSKNTVYLQMNSLRAEDTAVYYCVAAPWRCTHDNCSKTRASWGQGTMVTVSS
notes: Single domain antibody on a human VH scaffold, expressed in E. coli; also called VR2-801-45

What was measured:
[1] = target: V21H4-DOS47 (V21H4, SEQ ID NO:6, conjugated to jack bean urease through BM(PEG)2) (jack bean (Canavalia ensiformis), UniProt P07374 1-840, C824, C663, C59 and C207 partly linked through BM(PEG)2 to C136 of V21H4; C136 linked through BM(PEG)2 to a urease cysteine); experiment: ELISA on recombinant VEGFR2/Fc, absorbance at 405 nm
[2] = target: V21H1-DOS47 (V21H1, SEQ ID NO:3, conjugated to jack bean urease through SM(PEG)2) (jack bean (Canavalia ensiformis), UniProt P07374 1-840, surface cysteines linked through SM(PEG)2 to the antibody; primary amines linked through SM(PEG)2 to urease cysteines; K66 in CDR2 was about 25% of the activated antibody); experiment: as above
[3] = target: T1, AB1-(SEQ ID NO:9) DOS47 antibody-urease conjugate (jack bean (Canavalia ensiformis), UniProt P07374 1-840, cross-linked to the antibody; sites not stated; chemically cross-linked to urease; cross-linker and sites not stated for this conjugate); experiment: ELISA on VEGFR2/Fc captured by anti-human IgG-Fc, conjugate detected with anti-urease [panel AB1-DOS47]
T1 construct: Antibody-enzyme conjugate; also called AB1-DOS47

[4] = target: T2, AB2-(SEQ ID NO:13) DOS47 antibody-urease conjugate (jack bean (Canavalia ensiformis), UniProt P07374 1-840, cross-linked to the antibody; sites not stated; chemically cross-linked to urease; cross-linker and sites not stated for this conjugate); experiment: ELISA on VEGFR2/Fc captured by anti-human IgG-Fc, conjugate detected with anti-urease [panel AB2-DOS47]
T2 construct: Antibody-enzyme conjugate; also called AB2-DOS47

[5] = target: T3, AB4-(SEQ ID NO:27) DOS47 antibody-urease conjugate (jack bean (Canavalia ensiformis), UniProt P07374 1-840, cross-linked to the antibody; sites not stated; chemically cross-linked to urease; cross-linker and sites not stated for this conjugate); experiment: ELISA on VEGFR2/Fc captured by anti-human IgG-Fc, conjugate detected with anti-urease [panel AB4-DOS47]
T3 construct: Antibody-enzyme conjugate; also called AB4-DOS47

[6] = target: T4, V21H4-DOS47 with 1.4 antibodies per urease (jack bean (Canavalia ensiformis), UniProt P07374 1-840, surface cysteines partly linked through BM(PEG)2 to C136 of V21H4; C136 linked through BM(PEG)2 to a urease cysteine); experiment: ELISA on recombinant VEGFR2/Fc, absorbance at 405 nm, V21H4-DOS47 at different antibody/urease ratios
T4 construct: The conjugation ratio is an average value from SDS-PAGE

[7] = target: T5, V21H4-DOS47 with 2.3 antibodies per urease (jack bean (Canavalia ensiformis), UniProt P07374 1-840, surface cysteines partly linked through BM(PEG)2 to C136 of V21H4; C136 linked through BM(PEG)2 to a urease cysteine); experiment: as above
T5 construct: The conjugation ratio is an average value from SDS-PAGE

[8] = target: T6, V21H4-DOS47 with 3.3 antibodies per urease (jack bean (Canavalia ensiformis), UniProt P07374 1-840, surface cysteines partly linked through BM(PEG)2 to C136 of V21H4; C136 linked through BM(PEG)2 to a urease cysteine); experiment: as above
T6 construct: The conjugation ratio is an average value from SDS-PAGE

[9] = target: T7, V21H4-DOS47 with 9.4 antibodies per urease (jack bean (Canavalia ensiformis), UniProt P07374 1-840, surface cysteines partly linked through BM(PEG)2 to C136 of V21H4; C136 linked through BM(PEG)2 to a urease cysteine); experiment: as above
T7 construct: The conjugation ratio is an average value from SDS-PAGE

[10] = target: T8, human VEGFR2 (KDR) expressed on 293/KDR cells (human, UniProt P35968 20-1356); experiment: flow cytometry on 293/KDR cells (FIG. 13B)
[11] = target: B1; experiment: ELISA on recombinant VEGFR2/Fc, absorbance at 405 nm
[12] = target: T8, human VEGFR2 (KDR) expressed on 293/KDR …; experiment: flow cytometry on 293/KDR cells, S/N against biotin-isotype control
[13] = target: B1; experiment: ELISA, captured recombinant VEGFR2/Fc, biotin-V21H4 (FIG. 13A); antibody alone, not conjugate
[14] = target: T9, mouse VEGFR-2/Fc (R&D Systems) (mouse, UniProt P35918 20-762); experiment: SPR (Biacore 3000), immobilized mouse VEGFR-2/Fc
T9 construct: Bought protein; also called immobilized mouse VEGFR-2/Fc; not shown: Fc part, not described

[15] = target: B1; experiment: SPR (Biacore 3000), immobilized human VEGFR-2/Fc
[16] = target: B1; experiment: SPR (Biacore 3000), immobilized human VEGFR-2/Fc; estimated from transformed data (FIG. 3)

T9 sequence (P35918 20-762 limits assumed): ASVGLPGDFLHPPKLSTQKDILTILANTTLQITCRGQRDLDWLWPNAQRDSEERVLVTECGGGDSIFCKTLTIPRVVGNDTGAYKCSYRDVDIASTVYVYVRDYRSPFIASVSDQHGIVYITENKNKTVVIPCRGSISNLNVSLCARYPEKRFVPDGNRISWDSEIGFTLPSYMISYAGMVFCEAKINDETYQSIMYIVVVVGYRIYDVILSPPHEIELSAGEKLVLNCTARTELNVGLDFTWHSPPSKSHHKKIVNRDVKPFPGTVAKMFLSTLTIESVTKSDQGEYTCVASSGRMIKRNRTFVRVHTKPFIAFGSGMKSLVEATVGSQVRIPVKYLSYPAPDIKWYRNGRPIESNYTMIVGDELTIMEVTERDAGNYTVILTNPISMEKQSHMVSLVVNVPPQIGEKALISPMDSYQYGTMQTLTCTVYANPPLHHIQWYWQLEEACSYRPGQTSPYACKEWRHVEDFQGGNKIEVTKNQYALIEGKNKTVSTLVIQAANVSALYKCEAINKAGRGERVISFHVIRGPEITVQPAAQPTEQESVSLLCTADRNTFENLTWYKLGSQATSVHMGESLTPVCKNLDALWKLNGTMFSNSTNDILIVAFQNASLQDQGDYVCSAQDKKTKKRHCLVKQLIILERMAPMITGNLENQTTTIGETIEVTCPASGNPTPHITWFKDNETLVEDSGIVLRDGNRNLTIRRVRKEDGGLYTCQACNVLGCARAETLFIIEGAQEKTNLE
T1 sequence (VHH, as listed by the source limits assumed, chain 1 of 2): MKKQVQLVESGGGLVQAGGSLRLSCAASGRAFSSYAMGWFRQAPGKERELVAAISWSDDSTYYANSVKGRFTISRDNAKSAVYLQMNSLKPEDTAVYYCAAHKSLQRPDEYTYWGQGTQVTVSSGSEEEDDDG
T1 sequence (P07374 whole entry, chain 2 of 2): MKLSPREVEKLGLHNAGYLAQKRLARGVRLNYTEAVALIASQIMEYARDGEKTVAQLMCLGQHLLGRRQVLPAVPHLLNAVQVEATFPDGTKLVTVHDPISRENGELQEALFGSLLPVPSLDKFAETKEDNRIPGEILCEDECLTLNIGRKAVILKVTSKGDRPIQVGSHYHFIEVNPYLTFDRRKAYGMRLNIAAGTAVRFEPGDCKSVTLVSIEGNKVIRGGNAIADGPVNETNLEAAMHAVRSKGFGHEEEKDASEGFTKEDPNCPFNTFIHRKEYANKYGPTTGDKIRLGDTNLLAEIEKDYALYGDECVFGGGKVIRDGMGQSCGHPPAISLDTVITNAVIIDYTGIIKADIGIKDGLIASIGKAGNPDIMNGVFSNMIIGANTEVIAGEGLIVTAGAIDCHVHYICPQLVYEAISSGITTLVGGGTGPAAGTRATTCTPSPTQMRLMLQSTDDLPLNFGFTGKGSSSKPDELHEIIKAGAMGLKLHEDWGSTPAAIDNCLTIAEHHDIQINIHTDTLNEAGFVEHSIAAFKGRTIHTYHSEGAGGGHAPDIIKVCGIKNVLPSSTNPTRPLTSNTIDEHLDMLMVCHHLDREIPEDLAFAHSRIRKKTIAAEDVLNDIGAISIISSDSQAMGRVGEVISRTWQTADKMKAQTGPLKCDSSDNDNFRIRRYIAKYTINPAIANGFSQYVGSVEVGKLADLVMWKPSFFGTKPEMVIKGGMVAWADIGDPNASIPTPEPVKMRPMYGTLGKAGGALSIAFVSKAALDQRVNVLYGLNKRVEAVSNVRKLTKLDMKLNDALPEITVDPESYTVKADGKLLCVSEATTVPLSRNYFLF
T3 sequence (VHH, as listed by the source limits assumed, chain 1 of 2): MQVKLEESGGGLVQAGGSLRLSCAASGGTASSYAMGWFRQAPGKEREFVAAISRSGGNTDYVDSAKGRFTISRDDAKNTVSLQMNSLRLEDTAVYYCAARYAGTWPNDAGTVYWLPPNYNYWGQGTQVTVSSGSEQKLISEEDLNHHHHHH
T3 sequence (P07374 whole entry, chain 2 of 2): as the sequence (P07374 whole entry, chain 2 of 2) above
T5 sequence (VHH, as listed by the source limits assumed, chain 1 of 2): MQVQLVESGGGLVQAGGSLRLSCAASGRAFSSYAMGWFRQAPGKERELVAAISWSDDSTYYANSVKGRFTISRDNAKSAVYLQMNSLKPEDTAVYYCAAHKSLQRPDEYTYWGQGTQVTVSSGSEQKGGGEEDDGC
T5 sequence (P07374 whole entry, chain 2 of 2): as the sequence (P07374 whole entry, chain 2 of 2) above
T6 sequence (P07374 whole entry, chain 2 of 2): as above
T4 sequence (P07374 whole entry, chain 2 of 2): as above
Chain of V21H4-DOS47 (V21H4, SEQ ID NO:6, conjugated to jack bean urease through BM(PEG)2) (P07374 whole entry, chain 2 of 2): as above
T7 sequence (P07374 whole entry, chain 2 of 2): as above
Chain of V21H1-DOS47 (V21H1, SEQ ID NO:3, conjugated to jack bean urease through SM(PEG)2) (VHH, as listed by the source limits assumed, chain 1 of 2): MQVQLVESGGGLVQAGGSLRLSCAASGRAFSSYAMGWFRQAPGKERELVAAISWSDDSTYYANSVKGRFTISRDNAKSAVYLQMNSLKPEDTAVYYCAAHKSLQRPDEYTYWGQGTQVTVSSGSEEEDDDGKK
Chain of V21H1-DOS47 (V21H1, SEQ ID NO:3, conjugated to jack bean urease through SM(PEG)2) (P07374 whole entry, chain 2 of 2): as the sequence (P07374 whole entry, chain 2 of 2) above
T2 sequence (VH, as listed by the source limits assumed, chain 1 of 2): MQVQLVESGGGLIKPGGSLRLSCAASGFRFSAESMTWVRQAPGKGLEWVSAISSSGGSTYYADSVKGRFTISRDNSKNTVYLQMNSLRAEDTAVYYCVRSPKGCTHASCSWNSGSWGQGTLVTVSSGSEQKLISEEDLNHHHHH
T2 sequence (P07374 whole entry, chain 2 of 2): as the sequence (P07374 whole entry, chain 2 of 2) above

B1
binding result [1]: binds | binding result [2]: binds | binding result [3]: binds | binding result [4]: binds | binding result [5]: binds | binding result [6]: binds | binding result [7]: binds | binding result [8]: binds | binding result [9]: binds

B2
EC50 [10]: 1.6 nM | EC50 (read off the curve) [11]: ~2 nM | EC50 (read off the curve) [12]: ~2 nM | EC50 [13]: 1.8 nM

B3
binding result [14]: no binding (tested: 150˜200 nM) | Kd [15]: 500 nM | koff [15]: 0.02 s⁻¹ | kon [15]: 46000 M⁻¹ s⁻¹

B4
binding result [14]: no binding (tested: 150˜200 nM) | Kd [16]: ~80 nM | koff [16]: < 0.01 s⁻¹ | kon [16]: ~60000 M⁻¹ s⁻¹

B5
binding result [14]: no binding (tested: 150˜200 nM) | Kd [15]: 80 nM

B6
binding result [14]: no binding (tested: 150˜200 nM) | Kd [15]: 900 nM | koff [15]: 0.045 s⁻¹ | kon [15]: 53000 M⁻¹ s⁻¹
